Data reported in patent US20220185894A1 (F STAR THERAPEUTICS, published 2022).
“And” between values parts separate entries of the source, which are not always exact repeats. Identical values can stand only once.

Assays:
[1] = biological target: T1, human PD-L1 expressed on cells (human, UniProt Q9NZQ7 19-290); assay: cell-based or functional assay
[2] = biological target: T1, human PD-L1 expressed on cells; assay: flow cytometry on HEK cells expressing human PD-L1
Protocol: (§1) HEK cells expressing human or cynomolgus PD-L1 grown in DMEM (Life Technologies, 61965-026) containing 10% FBS (Life Technologies, 10270-1-6), 100 μg/ml Hygromycin B (Melford Laboratories Ltd, Z2475), 15 μg/ml Blasticidin (Melford Laboratories Ltd, B1105) and 1 μg/ml Doxycyclin (Sigma, D9891) were detached from tissue culture flasks using cell dissociation buffer (Life Technologies, 13151-014) and seeded in V-bottom 96-well plates (Costar, 3897) at 2×10⁵ cells/well. The plates were centrifuged at 1500 rpm for 3 min at 4° C. to pellet the cells. A dilution series of the mAb² (or control mAb) was incubated with the cells in a 100 μl volume for 1 h at 4° C. The plates were washed and secondary antibody (Anti-human Fc-488, Jackson ImmunoResearch, 109-546-098) was diluted 1:1000 in PBS and 100 μl was added to the cells for 30 min at 4° C. (plates were kept in the dark). The plates were washed then cells were resuspended in 100 μl PBS containing 1 μg/ml DAPI (Biotium, 40043). The plates were read using Canto II flow cytometer (BD Bioscience). Dead cells were excluded and the fluorescence in the FITC channel (488 nm/530/30) was measured. The data was fit using log (agonist) vs response in GraphPad Prism Software. The plates were read on a BD FACSCanto II cytometer (BD Biosciences) and the data analysed using FlowJo.

[3] = biological target: T2, cynomolgus LAG-3 expressed on cells (cynomolgus monkey, UniProt P18627 24-525 (human entry)); assay: flow cytometry on HEK cells expressing cynomolgus LAG-3
T2 construct: also called cLAG-3; cyno LAG-3
T2 chain: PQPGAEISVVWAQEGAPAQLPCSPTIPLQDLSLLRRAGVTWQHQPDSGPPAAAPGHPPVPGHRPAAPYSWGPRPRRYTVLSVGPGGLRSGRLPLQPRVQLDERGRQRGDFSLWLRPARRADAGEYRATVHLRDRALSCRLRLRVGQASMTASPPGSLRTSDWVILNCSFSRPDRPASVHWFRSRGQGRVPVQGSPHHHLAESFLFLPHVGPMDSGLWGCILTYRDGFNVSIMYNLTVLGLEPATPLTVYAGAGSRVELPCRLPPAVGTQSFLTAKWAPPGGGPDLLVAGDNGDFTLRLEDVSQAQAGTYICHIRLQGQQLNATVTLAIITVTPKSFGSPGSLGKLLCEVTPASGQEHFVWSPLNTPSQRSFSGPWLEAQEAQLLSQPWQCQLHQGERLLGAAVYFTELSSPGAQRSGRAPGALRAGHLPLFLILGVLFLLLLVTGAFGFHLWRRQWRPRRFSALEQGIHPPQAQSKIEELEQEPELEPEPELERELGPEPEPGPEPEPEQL
Protocol: as §1, with “The affinity of the mAb² (all containing the LALA mutation) for cell expressed human or cynomolgus LAG-3 was determined using flow cytometry. HEK cells” for “HEK cells”, “or cynomolgus LAG-3 grown in” for “or cynomolgus PD-L1 grown in”, “control mAb) were incubated with” for “control mAb) was incubated with”, “were washed and then cells” for “were washed then cells”

[4] = biological target: T3, cynomolgus PD-L1 expressed on cells (cynomolgus monkey, UniProt Q9NZQ7 19-290 (human entry)); assay: flow cytometry on HEK cells expressing cynomolgus PD-L1
T3 construct: also called cPD-L1; cyno PD-L1
T3 sequence (Q9NZQ7 other isoform, or with tags, fused parts or gaps limits assumed): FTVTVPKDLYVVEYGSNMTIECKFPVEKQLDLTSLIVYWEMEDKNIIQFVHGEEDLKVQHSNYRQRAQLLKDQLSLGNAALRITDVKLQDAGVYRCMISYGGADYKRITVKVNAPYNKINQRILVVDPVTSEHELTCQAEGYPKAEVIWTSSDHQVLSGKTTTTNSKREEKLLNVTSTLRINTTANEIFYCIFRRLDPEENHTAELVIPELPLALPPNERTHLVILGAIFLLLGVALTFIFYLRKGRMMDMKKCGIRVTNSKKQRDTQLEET
Protocol: as §1

[5] = biological target: T4, human PD-L1 Fc (R&D Systems, 156-B7) (human, UniProt Q9NZQ7 19-239); assay: SPR, BIAcore T200; mAb2 captured on Protein L, PD-L1 Fc injected
T4 construct: Bought protein; not shown: Fc tag of the bought fusion protein
T4 sequence (Q9NZQ7 19-239 limits assumed): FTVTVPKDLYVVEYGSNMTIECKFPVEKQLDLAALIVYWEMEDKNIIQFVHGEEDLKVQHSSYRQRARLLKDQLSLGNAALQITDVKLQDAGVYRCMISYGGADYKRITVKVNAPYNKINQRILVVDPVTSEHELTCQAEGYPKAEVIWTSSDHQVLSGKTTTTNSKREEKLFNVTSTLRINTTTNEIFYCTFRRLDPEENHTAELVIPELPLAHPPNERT

T1 sequence (Q9NZQ7 19-290 limits assumed): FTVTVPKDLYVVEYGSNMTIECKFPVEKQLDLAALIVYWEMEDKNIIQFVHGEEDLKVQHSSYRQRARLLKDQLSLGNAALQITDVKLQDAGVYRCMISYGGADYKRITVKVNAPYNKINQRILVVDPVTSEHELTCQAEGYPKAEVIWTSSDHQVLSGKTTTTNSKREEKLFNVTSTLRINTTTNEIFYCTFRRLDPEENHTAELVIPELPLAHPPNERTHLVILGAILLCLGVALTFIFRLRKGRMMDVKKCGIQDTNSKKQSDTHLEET

B1: anti-human LAG-3/PD-L1 mAb2 FS18-7-9/84G09 with LALA mutation (bispecific antibody, human IgG1, kappa, L234A L235A)
heavy: EVQLVESGGGLVQPGRSLRLSCAASGFTFDDYAMHWVRQTPGKGLEWVSGISWKSNIIGYADSVKGRFTISRDNAKNSLYLQMNSLRAEDTALYYCARDITGSGSYGWFDPWGQGTLVTVSSASTKGPSVFPLAPSSKSTSGGTAALGCLVKDYFPEPVTVSWNSGALTSGVHTFPAVLQSSGLYSLSSVVTVPSSSLGTQTYICNVNHKPSNTKVDKKVEPKSCDKTHTCPPCPAPEAAGGPSVFLFPPKPKDTLMISRTPEVTCVVVDVSHEDPEVKFNWYVDGVEVHNAKTKPREEQYNSTYRVVSVLTVLHQDWLNGKEYKCKVSNKALPAPIEKTISKAKGQPREPQVYTLPPSWDEPWGEDVSLTCLVKGFYPSDIAVEWESNGQPENNYKTTPPVLDSDGSFFLYSKLTVPYDRWVWPDEFSCSVMHEALHNHYTQKSLSLSPG
light: DIQMTQSPSSLSASVGDRVTITCRASQSISSYLNWYQQKPGKAPKPLIYVASSLQSGVPSSFSGSGSGTDFTLTISSLQPEDFATYYCQQSYSNPITFGQGTRLEIKRTVAAPSVFIFPPSDEQLKSGTASVVCLLNNFYPREAKVQWKVDNALQSGNSQESVTEQDSKDSTYSLSSTLTLSKADYEKHKVYACEVTHQGLSSPVTKSFNRGEC
notes: also called FS18-7-09/84G09LALA; FS18-7-9/84G09 LALA
Question: Which “Maximal IL2 release calculated as % ctrl (84G09 + 25F7)” value [1] does the source give for B1 here?
Answer: 65.9%

Question: What about the EC50 [2] of the same binder?
Answer: 3.19 nM and 3.51 nM

Question: What about the EC50 [3] of the same binder?
Answer: 29.9 nM

Question: And the “fold better binding (EC50) than control antibody 25F7” value [3]?
Answer: ≥ 2 fold

Question: And the EC50 [4]?
Answer: 1.67 nM and 1.81 nM

Question: And the Kd [5]?
Answer: 1 nM

Question: And the koff [5]?
Answer: 0.00039 s⁻¹

Question: What about the kon [5] of the same binder?
Answer: 380000 M⁻¹ s⁻¹
